Test results as given in patent publication US20210269476A1.

Tests used:
[1] = biological target: human IgG1 (coupled to the sensor chip) (human); experiment: SPR, Biacore X-100, single cycle kinetics, human IgG1 coupled to the chip, scFv as analyte
[2] = biological target: human serum-derived IgG polyclonal antibody (WAKO) (human); experiment: affinity column breakthrough curve; scFv (5.0 mg) immobilized on HiTrap NHS-activated HP 1 mL, polyclonal human IgG 1 mg/mL at 1 mL/min
[3] = biological target: human serum-derived IgG polyclonal antibody (WAKO) (human); experiment: affinity column breakthrough curve; scFv immobilized on HiTrap NHS-activated HP 1 mL, polyclonal human IgG 1 mg/mL at 1 mL/min

Kd [1] [nM]	koff [1] [s⁻¹]	kon [1] [M⁻¹ s⁻¹]	[10% DBC (mg/mL) at flow rate of 1.0 mL/min]/[amount of protein immobilized on column (mg)] [2]	[10% DBC (mg/mL) at flow rate of 1.0 mL/min]/[amount of protein immobilized on column (mg)] [3]	Binder
1.7	0.0001	61000	1.26 (mg/mL)/mg	–	R3-26 repCK+K3 (scFv) scFv: QEQLVESGGGLVTPGGTLTLTCTVSGIDLSSYAMSWVRQVPGEGLEWIGIIGSGGGTAYANWARGRFTISRTSSTTVDLRMTSLTTEDTATYFCATDYGIYGYAYGHLWGPGTLVTVTSGGGGSGGGGSGGGGSELVMTQTASPVSAAVGGTVTINCQASQSISTALAWYQQRPGQPPRLLIYDASTLASGVSSRFSGSGSGTEFTLTISDLESADAATYYCQTYFGSDTDNAFGEGTEVEITGSAAAGGGGSKKKIE
2.4	0.00017	70000	1.4 (mg/mL)/mg	–	R3-26 repCK+K5 (scFv) scFv: QEQLVESGGGLVTPGGTLTLTCTVSGIDLSSYAMSWVRQVPGEGLEWIGIIGSGGGTAYANWARGRFTISRTSSTTVDLRMTSLTTEDTATYFCATDYGIYGYAYGHLWGPGTLVTVTSGGGGSGGGGSGGGGSELVMTQTASPVSAAVGGTVTINCQASQSISTALAWYQQRPGQPPRLLIYDASTLASGVSSRFSGSGSGTEFTLTISDLESADAATYYCQTYFGSDTDNAFGEGTEVEITGSAAAGGGGSKKKKKIE
1.6	9.1e-05	56000	–	0.63 (mg/mL)/mg	R3-26 repCK+K (scFv) scFv: QEQLVESGGGLVTPGGTLTLTCTVSGIDLSSYAMSWVRQVPGEGLEWIGIIGSGGGTAYANWARGRFTISRTSSTTVDLRMTSLTTEDTATYFCATDYGIYGYAYGHLWGPGTLVTVTSGGGGSGGGGSGGGGSELVMTQTASPVSAAVGGTVTINCQASQSISTALAWYQQRPGQPPRLLIYDASTLASGVSSRFSGSGSGTEFTLTISDLESADAATYYCQTYFGSDTDNAFGEGTEVEITGSAAAGGGGSKIE
